Laboratory results reported in patent publication US20190145987A1 (UNIVERSIT LIBRE DE BRUXELLES, published 2019).

Target: human DPP6 protein (human, UniProt P42658 117-865, limits assumed)
Assay: affinity versus the human DPP6 protein; method not stated

Sequence of human DPP6 protein (P42658 117-865 limits assumed): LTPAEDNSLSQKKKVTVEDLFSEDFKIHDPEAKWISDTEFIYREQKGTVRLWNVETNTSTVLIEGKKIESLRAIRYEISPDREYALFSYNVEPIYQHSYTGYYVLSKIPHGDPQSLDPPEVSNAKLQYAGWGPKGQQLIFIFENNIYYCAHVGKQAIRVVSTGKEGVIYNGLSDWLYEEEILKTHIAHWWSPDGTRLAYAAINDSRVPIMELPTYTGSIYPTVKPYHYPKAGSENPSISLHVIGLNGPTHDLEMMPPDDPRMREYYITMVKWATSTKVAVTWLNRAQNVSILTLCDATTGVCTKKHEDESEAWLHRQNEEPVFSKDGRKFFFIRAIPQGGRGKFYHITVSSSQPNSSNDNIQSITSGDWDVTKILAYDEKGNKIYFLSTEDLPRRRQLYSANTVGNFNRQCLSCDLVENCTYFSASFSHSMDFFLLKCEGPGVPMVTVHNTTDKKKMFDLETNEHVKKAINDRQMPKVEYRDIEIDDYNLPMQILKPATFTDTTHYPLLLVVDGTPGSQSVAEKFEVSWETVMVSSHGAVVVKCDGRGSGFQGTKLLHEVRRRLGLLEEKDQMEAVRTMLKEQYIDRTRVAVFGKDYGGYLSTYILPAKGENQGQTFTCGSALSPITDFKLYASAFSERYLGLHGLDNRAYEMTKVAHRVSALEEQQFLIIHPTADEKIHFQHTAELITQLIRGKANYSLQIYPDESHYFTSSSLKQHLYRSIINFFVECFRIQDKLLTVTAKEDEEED

Kd: 1.2 nM
B1: nanobody 4hD29 (VHH)
VHH: QVQLQESGGGLVQPGGSLRLSCAASGFTFSSNYMTWVRQAPGKGPEWVSGINPDGSSTYYADSVKGRFTISRDNAKNTLYLQMNSLKSEDTALYKCATGAAPRIPTTLRGQGTQVTVSS
notes: also called Nb 4hD29; 4hD29 Nb
